Among the data in paper PMC7600800 are other: number of unique peptides (unique peptides) values, retold here.

Test in all cases: anti-HA immunoprecipitation, SDS-PAGE and mass spectrometry
For assay [1], the target named is lamin-B1 isoform 1. The following applies: lysates of transfected HEK293 cells; parent: -.
The target of assay [2] is dnaJ homolog subfamily A member 1. The following applies: lysates of transfected HEK293 cells; parent: 7.
Assay [3] concerns the target ruvB-like 1. The following applies: lysates of transfected HEK293 cells; parent: 3.
Assay [4] concerns the target 78 kDa glucose-regulated protein precursor. The following applies: lysates of transfected HEK293 cells; parent: 39.
The target in assay [5] is heat shock 70 kDa protein 1-like. The following applies: lysates of transfected HEK293 cells; parent: 13.
For assay [6], the target named is regulator of chromosome condensation isoform c. The following applies: lysates of transfected HEK293 cells; parent: -.
Assay [7] concerns the target heat shock-related 70 kDa protein 2. The following applies: lysates of transfected HEK293 cells; parent: 14.
For assay [8], the target named is T1, 14-3-3, endogenous, P63104.
T1 chain: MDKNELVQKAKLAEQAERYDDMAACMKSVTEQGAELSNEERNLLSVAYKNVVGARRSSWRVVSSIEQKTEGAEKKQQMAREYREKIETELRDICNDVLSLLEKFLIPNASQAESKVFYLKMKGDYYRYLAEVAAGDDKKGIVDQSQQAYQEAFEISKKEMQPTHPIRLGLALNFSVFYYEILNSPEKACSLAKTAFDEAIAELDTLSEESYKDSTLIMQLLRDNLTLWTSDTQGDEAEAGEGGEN
The following applies: chain shown with the change; lysates of transfected HEK293 cells; parent: -.

Take “HA-tagged p27 wild type (from UniProt P46527) R30A; N31A; L32A”: the other: number of unique peptides (unique peptides) was 3 in assay [1]; 4 in assay [2]; 2 in assay [3]; 34 in assay [4]; 12 in assay [5]; 2 in assay [6]. In assay [7], the other: number of unique peptides (unique peptides) was determined as 6.

B1: HA-tagged p27 wild type, P46527 R30A; N31A; L32A (protein)
chain: MSNVRVSNGSPSLERMDARQAEHPKPSACAAAFGPVDHEELTRDLEKHCRDMEEASQRKWNFDFQNHKPLEGKYEWQEVEKGSLPEFYYRPPRPPKGACKVPAQESQDVSGSRPAAPLIGAPANSEDTHLVDPKTDPSDSQTGLAEQCAGIRKRPATDDSSTQNKRANRTEENVSDGSPNAGSVEQTPKKPGLRRRQT
Turning to B1, the other: number of unique peptides (unique peptides) in assay [8] was found to be 4.
